# Assay results from article PMC9974061.
# pKd: −log10 of the molar value.
# Key:
# [1] = biological target: galectin-3 (gal-3), recombinant (UniProt P17931)
# [2] = biological target: apoptosis-linked gene 2-interacting protein X (ALIX), His-tagged recombinant (UniProt Q8WUM4); experiment: BLI; Octet RED96; biotinylated ALIX (1 ug/ml), TSG101 (0.5 ug/ml) or gal-3 (1 ug/ml) on streptavidin biosensors; two-fold dilutions of S (280-70 uM) and P domain (144-36 uM); 20 mM HEPES, 150 mM NaCl, 0.005% Tween 20, 2 mg/ml BSA, pH 7.8; 2:1 model
# apoptosis-linked gene 2-interacting protein X (ALIX), His-tagged recombinant, sequence (Q8WUM4 whole entry): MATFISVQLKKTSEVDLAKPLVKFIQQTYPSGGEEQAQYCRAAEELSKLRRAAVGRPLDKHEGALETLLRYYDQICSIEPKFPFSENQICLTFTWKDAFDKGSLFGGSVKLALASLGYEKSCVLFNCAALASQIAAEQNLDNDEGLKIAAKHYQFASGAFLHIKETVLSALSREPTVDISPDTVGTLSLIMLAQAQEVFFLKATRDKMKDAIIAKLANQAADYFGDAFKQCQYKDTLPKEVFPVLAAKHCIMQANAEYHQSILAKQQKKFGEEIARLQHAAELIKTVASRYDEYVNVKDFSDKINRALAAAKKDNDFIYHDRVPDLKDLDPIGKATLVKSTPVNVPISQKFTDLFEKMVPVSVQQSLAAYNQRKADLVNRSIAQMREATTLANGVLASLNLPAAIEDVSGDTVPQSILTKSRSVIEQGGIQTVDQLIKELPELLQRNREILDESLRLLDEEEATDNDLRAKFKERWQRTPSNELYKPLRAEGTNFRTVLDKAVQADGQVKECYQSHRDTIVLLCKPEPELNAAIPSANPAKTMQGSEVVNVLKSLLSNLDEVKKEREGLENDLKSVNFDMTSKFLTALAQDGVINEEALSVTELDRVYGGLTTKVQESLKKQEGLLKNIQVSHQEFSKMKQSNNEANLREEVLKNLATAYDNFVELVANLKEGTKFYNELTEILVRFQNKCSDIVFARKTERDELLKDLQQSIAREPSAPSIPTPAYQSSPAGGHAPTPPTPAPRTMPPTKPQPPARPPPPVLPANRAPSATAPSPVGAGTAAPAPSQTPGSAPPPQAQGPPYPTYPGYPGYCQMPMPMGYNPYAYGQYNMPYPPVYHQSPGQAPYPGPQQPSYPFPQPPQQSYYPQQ
# [3] = biological target: TSG101, His-tagged recombinant (UniProt Q99816); experiment: as above
# TSG101, His-tagged recombinant, sequence (Q99816 whole entry): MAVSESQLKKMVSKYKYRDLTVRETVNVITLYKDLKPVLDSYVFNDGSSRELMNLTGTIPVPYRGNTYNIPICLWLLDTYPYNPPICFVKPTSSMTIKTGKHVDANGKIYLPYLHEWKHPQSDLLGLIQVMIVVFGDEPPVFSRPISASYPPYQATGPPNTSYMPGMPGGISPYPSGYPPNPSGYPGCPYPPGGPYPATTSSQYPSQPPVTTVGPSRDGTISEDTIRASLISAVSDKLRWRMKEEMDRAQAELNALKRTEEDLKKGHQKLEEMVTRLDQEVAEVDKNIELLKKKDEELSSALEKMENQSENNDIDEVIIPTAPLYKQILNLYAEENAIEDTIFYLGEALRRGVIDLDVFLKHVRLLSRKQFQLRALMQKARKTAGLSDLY
# galectin-3 (gal-3), recombinant, sequence (P17931 whole entry): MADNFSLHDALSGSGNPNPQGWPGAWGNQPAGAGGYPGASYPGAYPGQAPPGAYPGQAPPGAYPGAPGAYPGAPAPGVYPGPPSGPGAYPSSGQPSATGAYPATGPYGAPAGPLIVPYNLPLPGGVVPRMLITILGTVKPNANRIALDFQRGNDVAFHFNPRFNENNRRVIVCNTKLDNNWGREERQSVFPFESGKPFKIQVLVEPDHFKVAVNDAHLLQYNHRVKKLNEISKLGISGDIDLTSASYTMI
Substance,GII.4 virus (stool isolate) replication in J2 HIEs at 24 h in the presence of anti-gal-3 antibody [1] [% reduction],pKd [2],pKd [3]
GII.4 Sydney/2012 virus-like particles (complex),98,–,–
GII.4 capsid Shell (S) domain (domain or fragment),–,5.00,4.67
